The target in data set [1] is G5-TPR (Gemin5 TPR-like dimerization domain) (Homo sapiens, UniProt Q8TEQ6 807-1097). Description: EMSA. For orientation: A gel shift assay detects complexes by their altered migration in electrophoresis.
The data set “SEC-MALS” deals with the molecule itself. Nature of the data set: SEC-MALS.
The data set “[…]” concerns the molecule itself. Description: […].
For data set [2], the target named is T1, Gemin5 cleavage fragment p85, wild type, with C-terminal TAP tag (human, UniProt Q8TEQ6 845-1508).
T1 sequence: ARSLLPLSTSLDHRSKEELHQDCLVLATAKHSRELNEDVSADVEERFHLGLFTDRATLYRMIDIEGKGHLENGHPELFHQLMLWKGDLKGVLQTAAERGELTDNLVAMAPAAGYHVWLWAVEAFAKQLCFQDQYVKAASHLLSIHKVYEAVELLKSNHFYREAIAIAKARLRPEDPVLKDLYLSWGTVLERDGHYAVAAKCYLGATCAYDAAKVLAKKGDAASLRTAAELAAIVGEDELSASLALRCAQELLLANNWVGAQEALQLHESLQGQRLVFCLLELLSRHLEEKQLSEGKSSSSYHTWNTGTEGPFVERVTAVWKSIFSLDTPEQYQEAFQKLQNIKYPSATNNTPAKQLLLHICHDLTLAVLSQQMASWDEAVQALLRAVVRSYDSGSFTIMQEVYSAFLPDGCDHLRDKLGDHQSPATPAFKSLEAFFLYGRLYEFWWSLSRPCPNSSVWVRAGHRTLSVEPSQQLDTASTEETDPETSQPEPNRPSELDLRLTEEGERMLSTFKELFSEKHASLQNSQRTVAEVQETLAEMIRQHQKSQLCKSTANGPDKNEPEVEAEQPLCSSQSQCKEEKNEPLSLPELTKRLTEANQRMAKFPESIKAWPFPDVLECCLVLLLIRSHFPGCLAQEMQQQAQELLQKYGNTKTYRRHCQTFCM
Nature of the data set: co-IP.

B1: dsDNA H1-24-s/H1-24-as (dsDNA)
DNA 1: AATTCCCCAAATTCCAGTGTCTGGGTAAG
DNA 2: TCGACTTACCCAGACACTGGAATTTGGGG
For the molecule B1, in data set [1], the binding result is reported as “no binding”.

B2: Gemin5 TPR-like domain (residues 807-1097), wild type (domain or fragment)
chain: TPVSSGFEKSKVTINNKVILLKKEPPKEKPETLIKKRKARSLLPLSTSLDHRSKEELHQDCLVLATAKHSRELNEDVSADVEERFHLGLFTDRATLYRMIDIEGKGHLENGHPELFHQLMLWKGDLKGVLQTAAERGELTDNLVAMAPAAGYHVWLWAVEAFAKQLCFQDQYVKAASHLLSIHKVYEAVELLKSNHFYREAIAIAKARLRPEDPVLKDLYLSWGTVLERDGHYAVAAKCYLGATCAYDAAKVLAKKGDAASLRTAAELAAIVGEDELSASLALRCAQELLL
For the molecule B2, in the data set “SEC-MALS”, the “stoichiometry N” value came out at 2.

B3: Gemin5 TPR-like domain (residues 807-1097) A951E (domain or fragment)
chain: TPVSSGFEKSKVTINNKVILLKKEPPKEKPETLIKKRKARSLLPLSTSLDHRSKEELHQDCLVLATAKHSRELNEDVSADVEERFHLGLFTDRATLYRMIDIEGKGHLENGHPELFHQLMLWKGDLKGVLQTAAERGELTDNLVEMAPAAGYHVWLWAVEAFAKQLCFQDQYVKAASHLLSIHKVYEAVELLKSNHFYREAIAIAKARLRPEDPVLKDLYLSWGTVLERDGHYAVAAKCYLGATCAYDAAKVLAKKGDAASLRTAAELAAIVGEDELSASLALRCAQELLL
Turning to B3, the “stoichiometry N” value in data set […] was found to be 2.

B4: ssDNA H1-24-s (29 nt) (ssDNA)
DNA: AATTCCCCAAATTCCAGTGTCTGGGTAAG
B4: in data set [1], the binding result is listed as “no binding”.

B5: Gemin5, full-length endogenous protein (natural protein)
chain: MGQEPRTLPPSPNWYCARCSDAVPGGLFGFAARTSVFLVRVGPGAGESPGTPPFRVIGELVGHTERVSGFTFSHHPGQYNLCATSSDDGTVKIWDVETKTVVTEHALHQHTISTLHWSPRVKDLIVSGDEKGVVFCYWFNRNDSQHLFIEPRTIFCLTCSPHHEDLVAIGYKDGIVVIIDISKKGEVIHRLRGHDDEIHSIAWCPLPGEDCLSINQEETSEEAEITNGNAVAQAPVTKGCYLATGSKDQTIRIWSCSRGRGVMILKLPFLKRRGGGIDPTVKERLWLTLHWPSNQPTQLVSSCFGGELLQWDLTQSWRRKYTLFSASSEGQNHSRIVFNLCPLQTEDDKQLLLSTSMDRDVKCWDIATLECSWTLPSLGGFAYSLAFSSVDIGSLAIGVGDGMIRVWNTLSIKNNYDVKNFWQGVKSKVTALCWHPTKEGCLAFGTDDGKVGLYDTYSNKPPQISSTYHKKTVYTLAWGPPVPPMSLGGEGDRPSLALYSCGGEGIVLQHNPWKLSGEAFDINKLIRDTNSIKYKLPVHTEISWKADGKIMALGNEDGSIEIFQIPNLKLICTIQQHHKLVNTISWHHEHGSQPELSYLMASGSNNAVIYVHNLKTVIESSPESPVTITEPYRTLSGHTAKITSVAWSPHHDGRLVSASYDGTAQVWDALREEPLCNFRGHRGRLLCVAWSPLDPDCIYSGADDFCVHKWLTSMQDHSRPPQGKKSIELEKKRLSQPKAKPKKKKKPTLRTPVKLESIDGNEEESMKENSGPVENGVSDQEGEEQAREPELPCGLAPAVSREPVICTPVSSGFEKSKVTINNKVILLKKEPPKEKPETLIKKRKARSLLPLSTSLDHRSKEELHQDCLVLATAKHSRELNEDVSADVEERFHLGLFTDRATLYRMIDIEGKGHLENGHPELFHQLMLWKGDLKGVLQTAAERGELTDNLVAMAPAAGYHVWLWAVEAFAKQLCFQDQYVKAASHLLSIHKVYEAVELLKSNHFYREAIAIAKARLRPEDPVLKDLYLSWGTVLERDGHYAVAAKCYLGATCAYDAAKVLAKKGDAASLRTAAELAAIVGEDELSASLALRCAQELLLANNWVGAQEALQLHESLQGQRLVFCLLELLSRHLEEKQLSEGKSSSSYHTWNTGTEGPFVERVTAVWKSIFSLDTPEQYQEAFQKLQNIKYPSATNNTPAKQLLLHICHDLTLAVLSQQMASWDEAVQALLRAVVRSYDSGSFTIMQEVYSAFLPDGCDHLRDKLGDHQSPATPAFKSLEAFFLYGRLYEFWWSLSRPCPNSSVWVRAGHRTLSVEPSQQLDTASTEETDPETSQPEPNRPSELDLRLTEEGERMLSTFKELFSEKHASLQNSQRTVAEVQETLAEMIRQHQKSQLCKSTANGPDKNEPEVEAEQPLCSSQSQCKEEKNEPLSLPELTKRLTEANQRMAKFPESIKAWPFPDVLECCLVLLLIRSHFPGCLAQEMQQQAQELLQKYGNTKTYRRHCQTFCM
Take B5: in data set [2], the “fold recruitment against p85-A951E” value was 10 fold.

What is called stoichiometry N is a count of units in the complex or per binding partner.

The values above are taken from article PMC6954437 (Nucleic Acids Research, 2019).
